# From publication PMC10806857
# Read-outs that look alike come from different tables or passages of the source.
# B1: DNA1 (dsDNA)
# DNA 1: CTGTACTTCCAGGGAATGGAAAGCGACCCTCTGCC
# DNA 2: GGCAGAGGGTCGCTTTCCATTCCCTGGAAGTACAG
# B2: DNA1 UVB-irradiated (dsDNA)
# DNA 1: CTGTACTTCCAGGGAATGGAAAGCGACCCTCTGCC
# DNA 2: GGCAGAGGGTCGCTTTCCATTCCCTGGAAGTACAG
# modifications: UVB irradiated, lesions undefined
# B3: RNA-30 bp-AT (dsRNA)
# RNA 1: AAAAAAAAAAAAAAAAAAAAAAAAAAAAAA
# RNA 2: UUUUUUUUUUUUUUUUUUUUUUUUUUUUUU
# B4: DNA-30 bp-AT (dsDNA)
# DNA 1: AAAAAAAAAAAAAAAAAAAAAAAAAAAAAA
# DNA 2: TTTTTTTTTTTTTTTTTTTTTTTTTTTTTT
# Legend:
# Assay in all cases: EMSA
# STK19 3KA = STK19 3KA (Homo sapiens, UniProt P49842 1-254, K186A;K190A;K201A)
# STK19 3KA, sequence (P49842 whole entry K186A/K190A/K201A): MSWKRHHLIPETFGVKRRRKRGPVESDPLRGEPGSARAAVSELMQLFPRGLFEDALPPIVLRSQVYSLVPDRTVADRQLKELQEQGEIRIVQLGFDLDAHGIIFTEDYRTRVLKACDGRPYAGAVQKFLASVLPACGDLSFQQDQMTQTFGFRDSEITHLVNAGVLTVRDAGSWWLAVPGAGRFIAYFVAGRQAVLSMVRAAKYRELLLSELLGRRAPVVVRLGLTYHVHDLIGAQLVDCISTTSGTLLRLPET
# STK19 25-C = STK19 25-C (Homo sapiens, UniProt P49842 25-254)
# STK19 25-C, sequence (P49842 25-254): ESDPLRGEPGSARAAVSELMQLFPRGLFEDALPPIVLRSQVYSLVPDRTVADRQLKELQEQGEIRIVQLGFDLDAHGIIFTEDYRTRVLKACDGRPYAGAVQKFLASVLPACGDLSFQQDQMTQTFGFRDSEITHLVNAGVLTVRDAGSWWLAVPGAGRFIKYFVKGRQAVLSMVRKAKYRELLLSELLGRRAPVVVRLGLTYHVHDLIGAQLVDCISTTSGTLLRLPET
# [1] = target: T1, STK19 (TWH19) WT full-length (Homo sapiens, UniProt P49842 1-254)
# T1 sequence (P49842 whole entry): as the sequence (P49842 whole entry K186A/K190A/K201A) above, with A186K, A190K, A201K counted along it
# [2] = target: T1, STK19 (TWH19) WT full-length; remark: listed apart in the source
# [3] = target: T1, STK19 (TWH19) WT full-length; remark: listed apart in the source
binder,measurement,setting,value
B1,binding result,STK19 3KA,no binding
same,Kd,STK19 25-C,3.8 µM
B2,binding result,[1],binds
B3,binding result,[2],binds
B4,binding result,[3],binds
